Non-standard residues stand in square brackets, D forms with d. *: point of attachment. MethylRed = CN(C)c1ccc(/N=N/c2ccccc2C(=O)*)cc1; FAM = 5(6)-carboxyfluorescein; peptoid = not defined here; Ahx = NCCCCCC(=O)O
T1: caspase-3 (Homo sapiens, UniProt P42574)
T1 construct: purchased R&D systems, USA
T1 sequence (P42574 29-175 limits assumed): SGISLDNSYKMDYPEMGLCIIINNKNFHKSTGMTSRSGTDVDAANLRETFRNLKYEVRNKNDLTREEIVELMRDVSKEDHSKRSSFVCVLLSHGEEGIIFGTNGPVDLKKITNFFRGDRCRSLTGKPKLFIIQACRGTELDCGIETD
T1 sequence (P42574 176-277 limits assumed): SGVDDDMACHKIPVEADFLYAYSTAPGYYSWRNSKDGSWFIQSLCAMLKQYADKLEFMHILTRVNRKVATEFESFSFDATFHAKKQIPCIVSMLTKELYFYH

T2: caspase-7 (Homo sapiens, UniProt P55210)
T2 construct: purchased R&D systems, USA
T2 sequence (P55210 24-198 limits assumed): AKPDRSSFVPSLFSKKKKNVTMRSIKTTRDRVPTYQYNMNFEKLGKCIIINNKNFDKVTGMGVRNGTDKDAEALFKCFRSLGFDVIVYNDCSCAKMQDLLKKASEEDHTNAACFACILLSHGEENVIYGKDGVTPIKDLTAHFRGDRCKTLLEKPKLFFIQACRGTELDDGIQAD
T2 sequence (P55210 207-303 limits assumed): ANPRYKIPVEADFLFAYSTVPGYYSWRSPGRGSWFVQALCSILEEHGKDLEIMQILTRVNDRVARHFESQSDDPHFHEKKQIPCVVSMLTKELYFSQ

T3: caspase-3 (UniProt P42574)
T3 sequence: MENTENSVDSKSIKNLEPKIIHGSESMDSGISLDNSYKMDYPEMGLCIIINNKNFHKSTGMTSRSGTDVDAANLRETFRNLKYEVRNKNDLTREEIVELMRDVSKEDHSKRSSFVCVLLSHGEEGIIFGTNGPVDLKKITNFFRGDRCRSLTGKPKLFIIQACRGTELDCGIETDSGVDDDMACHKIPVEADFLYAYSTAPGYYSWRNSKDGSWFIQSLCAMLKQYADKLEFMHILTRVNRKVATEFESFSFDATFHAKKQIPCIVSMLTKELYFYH


Key:
caspase-3 [1] = molecular target: T1, caspase-3; assay: Kinetic assay of fluorogenic substrates with caspase-3; format: biochemical; settings: substrate range 0.1–8 μM, enzyme 20 nM (1–9) or 15 nM (10–14), n = 3; for Km: fluorescence λEx/Em 485/528 nm, initial rate 0–5 min, Michaelis-Menten
Procedure: (§1) The ability of […] (bearing MR as the quencher of choice) to act as s substrate for caspase-3, as well as caspase-7, was investigated by determining the catalytic efficiency (kcat/KM) for each substrate with both enzymes (Table 2).
(§2) Caspase-3 or caspase-7 (R&D systems, USA) was added to 100 μL of caspase assay buffer with substrates 1–14 at concentrations from 0.1 μM to 8 μM in a 96-well plate (n = 3) to give final enzyme concentration of 20 nM (1–9) or 15 nM (10–14). Fluorescence (λEx/Em 485/528 nm) was recorded on a Biotek Synergy HT Multi-Mode Microplate Reader every 2 min. Control samples had the same composition but no enzyme. The rate (μM/min) was calibrated using a 5(6)-carboxyfluorescein conversion factor (0.0055 μM/RFU) and data plotted against time (min). For initial cleavage rate (0–5 min), plots were fitted using linear regression analysis and the Michaelis-Menten data generated using GraphPad Prism 5.

caspase-7 [2] = molecular target: T2, caspase-7; assay: Kinetic assay of fluorogenic substrates with caspase-7; format: biochemical; settings: substrate range 0.1–8 μM; enzyme 20 nM (1–9) or 15 nM (10–14); n = 3
Procedure: as §1, §2

caspase-3 [3] = molecular target: T1, caspase-3; assay: Caspase-3-mediated cleavage at high enzyme concentration analysed by MALDI-TOF MS; format: biochemical; settings: 10–20 μM substrate, 0.4 μM enzyme; for cleavage by caspase-3 (MALDI-TOF MS): 2 h, 37 °C; for parent compound after incubation with caspase-3: after 2h, MALDI-TOF MS
Procedure: (§3) To confirm how specific 11, 12 and 14 were for caspase-3, these substrates were incubated with high enzyme concentrations (10–20 μM substrate, 0.4 μM enzyme) and the caspase-mediated cleavage analysed by MALDI-TOF MS.
(§4) S2 Fig. (A) MALDI-TOF MS spectra of substrate 11 (sequence Asp-Ala-Pro-Asp). (B) After incubation (20 µM) with Caspase-3 for 2 h. (C) After incubation (20 µM) with Caspase-7 for 2 h (detected as the PBS adduct.)
(§5) Caspase-3 or caspase-7 (R&D systems, USA) was added to 100 µL of caspase assay buffer (final enzyme concentration 0.4 µM) with the substrates at 10–20 µM. The samples were incubated in Eppendorf Thermomixer® Comfort shaking at 1200 rpm for 2h at 37 °C. MALDI -TOF mass spectra were recorded as described in Table S1 .
(§6) (1 picture or pasted object on this page, not shown here)

caspase-7 [4] = molecular target: T2, caspase-7; assay: Caspase-7-mediated cleavage at high enzyme concentration analysed by MALDI-TOF MS; format: biochemical; settings: 10–20 μM substrate, 0.4 μM enzyme, 2 h; for cleavage by caspase-7 (MALDI-TOF MS): 37 °C; for cleavage site with caspase-7: MALDI-TOF MS
Procedure: as §3, §4, §5, §6

caspase-3 [5] = molecular target: T3, caspase-3
caspase-3 [6] = molecular target: T3, caspase-3; remark: listed apart in the source

Molecule	Km (caspase-3 [1])	Kcat, Caspase-3 (caspase-3 [1])	Km (caspase-7 [2])	kcat, Caspase-7 (caspase-7 [2])	kcat/KM, Caspase-7 (caspase-7 [2])	cleavage by caspase-3 (MALDI-TOF MS) (caspase-3 [3])	parent compound after incubation with caspase-3 (caspase-3 [3])	cleavage by caspase-7 (MALDI-TOF MS) (caspase-7 [4])	cleavage site with caspase-7 (caspase-7 [4])	kcat/KM (catalytic efficiency), Caspase-3 (caspase-3 [1]; listed as 12)	kcat/KM (catalytic efficiency), Caspase-3 (caspase-3 [1]; listed as 11)	KM of cleavage by caspase-3 (fluorogenic Michaelis-Menten kinetics) (caspase-3 [5])	KM of cleavage by caspase-3 (fluorogenic Michaelis-Menten kinetics, substrate 0.1-8 μM, 15 nM enzyme) (caspase-3 [6])
substrate 14: FRET fluorogenic substrate, recognition Asp-Val-Pro-Asp, quencher MR, C-terminal peptoid ({FAM-Ahx}-DVPD[Ahx]K(MethylRed)-{peptoid-NH2}; reading uncertain; also: printed as Asp-Val-Pro-Asp)	0.2 ± 0.04 µM	0.0283 ± 0.0017 s⁻¹	3.6 ± 0.9 µM	0.0233 ± 0.0033 s⁻¹	6700 M⁻¹ s⁻¹	cleaved by caspase-3 at the X1 position	no longer detected	(partially) cleaved by caspase-7	between the Ahx spacer and the Lys(MR)	–	–	–	–
substrate 12: FRET fluorogenic substrate, recognition Asp-Leu-Pro-Asp, quencher MR, C-terminal peptoid ({FAM-Ahx}-DLPD[Ahx]K(MethylRed)-{peptoid-NH2}; reading uncertain; also: printed as Asp-Leu-Pro-Asp)	0.2 ± 0.1 µM	0.0233 ± 0.0033 s⁻¹	1.4 ± 0.3 µM	0.015 ± 0.0012 s⁻¹	12000 M⁻¹ s⁻¹	cleaved by caspase-3 at the X1 position	no longer detected	(partially) cleaved by caspase-7	between the Ahx spacer and the Lys(MR)	96700 M⁻¹ s⁻¹	–	–	–
substrate 11: FRET fluorogenic substrate, recognition Asp-Ala-Pro-Asp, quencher MR, C-terminal peptoid ({FAM-Ahx}-DAPD[Ahx]K(MethylRed)-{peptoid-NH2}; reading uncertain; also: printed as Asp-Ala-Pro-Asp)	0.4 ± 0.1 µM	0.0217 ± 0.0017 s⁻¹	4.9 ± 2.1 µM	0.0267 ± 0.005 s⁻¹	5000 M⁻¹ s⁻¹	cleaved by caspase-3 at the X1 position	no longer detected	(partially) cleaved by caspase-7	between the Ahx spacer and the Lys(MR)	–	56700 M⁻¹ s⁻¹	–	–
{FAM-Ahx}-DLPDK(MethylRed)-{Ahx-peptoid} (reading uncertain; also: printed as FAM-Ahx-Asp-Leu-Pro-Asp-Lys(MR)-Ahx-peptoid) [fluorogenic substrate 27 (FAM-Ahx-Asp-Leu-Pro-Asp-Lys(MR)-Ahx-peptoid)]	–	–	–	–	–	–	–	–	–	–	–	1.1 µM	–
{FAM-Ahx}-DVPD[Ahx]K(MethylRed)-{peptoid-NH2} (reading uncertain; also: printed as Asp-Val-Pro-Asp) [fluorogenic substrate 14 (FAM-Ahx-Asp-Val-Pro-Asp-Ahx-Lys(MR)-peptoid)]	–	–	–	–	–	–	–	–	–	–	–	–	0.2 µM
{FAM-Ahx}-DLPD[Ahx]K(MethylRed)-{peptoid-NH2} (reading uncertain; also: printed as FAM-Ahx-Asp-Leu-Pro-Asp-Ahx-Lys(MR)-peptoid) [fluorogenic substrate 12 (FAM-Ahx-Asp-Leu-Pro-Asp-Ahx-Lys(MR)-peptoid)]	–	–	–	–	–	–	–	–	–	–	–	–	0.2 µM
{FAM-Ahx}-DAPD[Ahx]K(MethylRed)-{peptoid-NH2} (reading uncertain; also: printed as Asp-Ala-Pro-Asp) [fluorogenic substrate 11 (FAM-Ahx-Asp-Ala-Pro-Asp-Ahx-Lys(MR)-peptoid)]	–	–	–	–	–	–	–	–	–	–	–	–	0.4 µM

Source: PMC4864350, “Fluorogenic Substrates for In Situ Monitoring of Caspase-3 Activity in Live Cells” (PLoS ONE, 2016)
